In assay [1] the test system is MC903-induced spontaneous chronic itch in mice. Nature of the assay: MC903-induced mouse model of atopic dermatitis, spontaneous scratching. The note with it: cilengitide 100 nM by tail vein injection, Day 10. The class given is in vivo. Here is the method:
C57BL6 mice (Jackson Labs, Ellsworth, Maine, United States of America) were applied daily with MC903 (4 nmol) and vehicle (97% ethanol) after brief anesthesia. Skin thickness was measured using cutimeter as described (Fukuyama et al., 2015). Scratching behavior was video-monitored for 30 min on Day 1 and Day 7. On Day 7 skin was collected from vehicle and MC903 treated mice for the Western Blot (WB) as described below. NC/Nga mice (Charles River, Yokohama, Japan) were sensitized and challenged with house dust mite (HDM) allergen (Dermatophagoides farina, Greer, Lenoir, N.C., United States of Amercia) as described previously (Fukuyama et al., 2018). […] Scratching behavior was video monitored for 60 min period immediately after HDM on day 42. […] The amount of periostin was determined using ELISA according to the manufacturer's instruction.
A mouse model of atopic dermatitis in mice is generated. […] At Day 10, vehicle or the compound (at least one dose) is administered intravenous/orally to the animals, and then measured the scratching behaviors for at least 60 min. In order to see the sub-chronic effect of the compound, vehicle and the compound is administered to MC903-treated animals for several days and the alteration of the scratching behaviors is measured.

For a further assay, the system named is C57BL6J mice. Nature of the assay: Mouse cheek itch/pain model. The class given is in vivo. The note with it: periostin 5 μg/20 μl into the cheek. Here is the method:
(§1) All behavioral experiments were conducted during the light cycle at ambient temperature (23° C.). Behavioral assessment of scratching behavior was conducted as described previously (Mishra et al., 2011). Briefly, mice were injected intradermal into the nape of the neck with periostin (R&D), histamine, and chloroquine (all Millipore-Sigma) as previously described (Shimada and LaMotte, 2008). Compounds were diluted in PBS and the same was used as a vehicle. […] Additionally, cilengitide and periostin were combined together (mix) and injected i.d. into the dorsal neck of mouse. Scratching behavior was recorded for 30 minutes and data was presented in bouts per 30 minutes for mice. […] For eye wipes assay, periostin and capsaicin were dropped on mouse cornea and counted wipes for 1-minute. […] For dog's study, periostin (25 μg/25 μl) was injected in the dorsal neck (s.c.) and behavior was recorded and quantified for 30 minutes as “duration of pruritus manifestation” (DPM), as described earlier (Paps et al., 2016). […] When different raters separately scored a single tape, the ratings indicated high interrater reliability (coefficient of correlation, r>0.95). This method of itch readout in NHP has been used and accepted (Ko and Naughton, 2000). The behavior was recorded for 30 minutes duration and number of scratches quantified. […]

In another assay the test system is mouse cornea. Nature of the assay: Eye wipes assay (corneal application). The class given is in vivo. The note with it: wild-type mice, wiping measured for 1 minute. Here is the method:
as §1

The next assay has as its system dogs. Description: Periostin injection in dogs, pruritus manifestations. The settings on record: mouse recombinant periostin 25 μg/100 μl intradermally, neck, within 15 minutes. Type of assay: in vivo, dog.
In another assay the test system is monkeys. Description: Periostin injection in monkeys, number of scratches. The class given is in vivo, monkey. The note with it: mouse recombinant periostin 25 μg/100 μl subcutaneously, thigh, within 15 minutes. Here is the method: as §1
For the next assay, the system named is BMMC mast cells. Description: Calcium imaging on mast cells. The class given is cell-based, mouse. The note with it: mast cells stimulated with periostin alone. The method, then:
Changes in cytosolic Ca^2+ were assayed using ratiometric Fura-2 AM measurements as described (Cruse et al., 2013). Fluorescence was measured at two excitation wavelengths (340 and 380 nm) and an emission wavelength of 510 nm using a BioTek Neo2 multimode plate reader (BioTek, Winooski, Vt., United States of America). The ratio of fluorescence readings was calculated following subtraction of background fluorescence of cells not loaded with Fura-2 AM.

Another assay deals with SST-positive DRG neurons. Nature of the assay: Whole-cell patch clamp recordings in SST-positive mouse DRG neurons. The class given is cell-based. Here is the method: DRGs were removed aseptically from SOM-reporter mice (6-8 weeks) and incubated with collagenase (1.25 mg/ml)/dispase-II (2.4 units/ml) (both from Roche, Basel, Switzerland) at 37° C. for 90 min, then digested with 0.25% trypsin for 8 min at 37° C., followed by 0.25% trypsin inhibitor. Cells were mechanically dissociated with a flame polished Pasteur pipette in the presence of 0.05% DNAse I (Sigma, St. Louis, Miss., United States of America). DRG cells were plated on glass cover slips and grown in a neurobasal defined medium (with 2% B27 supplement, Invitrogen, Carlsbad, Calif., United States of America) with 5 μM AraC and 5% carbon dioxide at 36.5° C. DRG neurons were grown for 24 hours before use. Whole-cell patch clamp recordings were performed at room temperature using an Axopatch-700B amplifier (Axon Instruments, Foster City, Calif., United States of America) with a Digidata 1440B (Axon Instruments, Foster City, Calif., United States of America). Only SOM-positive neurons (<[…]) were recorded. […] Pipette resistance was 4-6 MΩ for whole-cell recording of periostin—induced inward currents, as previously recorded (Han et al., Neuron, 2018, PMID: 30033153)

The results in this text go back to patent US20220370545A1, “INTEGRIN RECEPTOR ALPHA V BETA 3 AND ITS LIGAND INVOLVED IN CHRONIC ITCH” (North Carolina State University, priority 2019, published 2022).

For `CC(C)[C@H]1C(=O)N[C@@H](CCCN=C(N)N)C(=O)NCC(=O)N[C@@H](CC(=O)O)C(=O)N[C@H](Cc2ccccc2)C(=O)N1C` [cilengitide, cyclo RGDf-n(Me)V], the MC903-induced spontaneous itching entry in assay [1] is listed as “significantly reduced”.

B1: periostin: fasciclin extracellular matrix protein, endogenous ligand of integrin αvβ3; mouse recombinant used (protein)
chain: NSYYDKVLAHSRIRGRDQGPNVCALQQILGTKKKYFSSCKNWYQGAICGKKTTVLYECCPGYMRMEGMKGCPAVMPIDHVYGTLGIVGATTTQHYSDVSKLREEIEGKGSYTYFAPSNEAWENLDSDIRRGLENNVNVELLNALHSHMVNKRMLTKDLKHGMVIPSMYNNLGLFINHYPNGVVTVNCARVIHGNQIATNGVVHVIDRVLTQIGTSIQDFLEAEDDLSSFRAAAITSDLLESLGRDGHFTLFAPTNEAFEKLPRGVLERIMGDKVASEALMKYHILNTLQCSEAITGGAVFETMEGNTIEIGCEGDSISINGIKMVNKKDIVTKNGVIHLIDEVLIPDSAKQVIELAGKQQTTFTDLVAQLGLASSLKPDGEYTLLAPVNNAFSDDTLSMDQRLLKLILQNHILKVKVGLSDLYNGQILETIGGKQLRVFVYRTAICIENSCMVRGSKQGRNGAIHIFREIIQPAEKSLHDKLRQDKRFSIFLSLLEAADLKDLLTQPGDWTLFAPTNDAFKGMTSEERELLIGDKNALQNIILYHLTPGVYIGKGFEPGVTNILKTTQGSKIYLKGVNETLLVNELKSKESDIMTTNGVIHVVDKLLYPADIPVGNDQLLELLNKLIKYIQIKFVRGSTFKEIPMTVYRPAMTKIQIEGDPDFRLIKEGETVTEVIHGEPVIKKYTKIIDGVPVEITEKQTREERIITGPEIKYTRISTGGGETGETLQKFLQKEVSKVTKFIEGGDGHLFEDEEIKRLLQGDTPAKKIPANKRVQGPRRRSREGRSQ
Regarding B1, the “scratching behavior, cheek injection” value in the assay on C57BL6J mice is on record as “robust scratching behavior similar to that of histamine”. Moreover, in the assay with C57BL6J mice (compared to capsaicin), the “wiping (pain behavior), cheek injection” value is on record as “did not induce wiping”. The “eye-wiping response to ocular application” value in the assay on mouse cornea was “No eye-wiping response”. Moreover, the “itch after periostin injection in dogs” value in the assay with dogs is given as “robust scratching”. The “itch after periostin injection in monkeys” value in the assay with monkeys was “robust scratching”. Further, the “calcium release in mast cells” value in the assay on BMMC mast cells is listed as “no periostin-dependent change in calcium release”. In addition, the “inward current by periostin” value in the assay on SST-positive DRG neurons (periostin 1 μg/ml, pilot data) is “weak inward currents”. Further, in the assay on SST-positive DRG neurons (periostin 10 μg/ml, 8 neurons from 4 mice), the “average inward current by periostin” value stood at 58.4 pA.
